± gives the standard error. For some assays here: Fewer inactive variants are shown than the library holds.
B1: glmS ribozyme (parent)
chain: AUAAAAGCGCCAGAACUACAGAAAUGUAGUUGACGAGGAGGAGGUUUAUCGAAUUUUCGGCGGAUGCCUCCAAA

Assays:
Conditions in all cases: with glucosamine-6-phosphate
glucosamine-6-phosphate [1] = variants of: B1; assay: kcat; higher = faster cleavage; RNA array
In short: (§1)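 Glucosamine-6-phosphate in HEPES/KCl/Mg(OAc)2 buffer, at 40 μM to 10 mM, was flowed over barcoded ribozyme variants transcribed in situ by E. coli RNA polymerase on sequenced MiSeq chips. Tracking was through a hybridised Cy3 probe at 37 °C. kobs, kcat and KM came from exponential decay fits and weighted Michaelis–Menten fits of normalised per-tile medians.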

glucosamine-6-phosphate [2] = variants of: B1; assay: self-cleavage kobs at 160 uM GlcN6P; higher = faster cleavage; RNA array
In short: as §1

glucosamine-6-phosphate [3] = variants of: B1; assay: self-cleavage kobs at 640 uM GlcN6P; higher = faster cleavage; RNA array
In short: as §1

glucosamine-6-phosphate [4] = variants of: B1; assay: self-cleavage kobs at 2500 uM GlcN6P; higher = faster cleavage; RNA array
In short: as §1

glucosamine-6-phosphate [5] = variants of: B1; assay: self-cleavage kobs at 10000 uM GlcN6P; higher = faster cleavage; RNA array
In short: as §1

glucosamine-6-phosphate [6] = variants of: B1; assay: self-cleavage kobs at 40 uM GlcN6P; higher = faster cleavage; RNA array
In short: as §1

glucosamine-6-phosphate [7] = variants of: B1; assay: KM; higher = weaker cofactor use; RNA array
In short: as §1

| Variant | kcat (glucosamine-6-phosphate [1]) | self-cleavage kobs at 160 uM GlcN6P (glucosamine-6-phosphate [2]) | self-cleavage kobs at 640 uM GlcN6P (glucosamine-6-phosphate [3]) | self-cleavage kobs at 2500 uM GlcN6P (glucosamine-6-phosphate [4]) | self-cleavage kobs at 10000 uM GlcN6P (glucosamine-6-phosphate [5]) | self-cleavage kobs at 40 uM GlcN6P (glucosamine-6-phosphate [6]) | KM (glucosamine-6-phosphate [7]) |
| --- | --- | --- | --- | --- | --- | --- | --- |
| A12G C16U | 0.00221 ± 0.00096 s⁻¹ | 4.12e-05 ± 9.2e-06 s⁻¹ | 0.000179 ± 2.1e-05 s⁻¹ | 0.00036 ± 4.1e-05 s⁻¹ | 0.00119 ± 0.0001 s⁻¹ | – | – |
| G29C U54G | 0.000894 ± 0.00025 s⁻¹ | – | 0.000289 ± 6.5e-05 s⁻¹ | 0.00051 ± 0.00013 s⁻¹ | 0.000918 ± 0.00014 s⁻¹ | 6e-05 ± 1.7e-05 s⁻¹ | – |
| A48C U54G | 0.000498 ± 0.00012 s⁻¹ | – | 0.000114 ± 1.4e-05 s⁻¹ | 0.000222 ± 2.4e-05 s⁻¹ | 0.000402 ± 5e-05 s⁻¹ | – | 2740 ± 1200 µM |
| A39U U49G | 0.00055 ± 0.00012 s⁻¹ | – | 0.000168 ± 5.1e-05 s⁻¹ | 0.000231 ± 6.6e-05 s⁻¹ | 0.000461 ± 7.3e-05 s⁻¹ | – | – |
| C11U G37C U57A | 1.82e-05 ± 2.9e-06 s⁻¹ | – | – | – | < 1e-05 s⁻¹ | – | – |
| A12U G41C | 0.000373 ± 8.7e-05 s⁻¹ | 2.68e-05 ± 1.1e-05 s⁻¹ | 0.000108 ± 1.2e-05 s⁻¹ | 0.000168 ± 2.7e-05 s⁻¹ | 0.000373 ± 5e-05 s⁻¹ | – | 1830 ± 770 µM |
| C16A U55G | 0.00294 ± 0.001 s⁻¹ | 0.000166 ± 3.8e-05 s⁻¹ | 0.000304 ± 5.7e-05 s⁻¹ | 0.00101 ± 0.00012 s⁻¹ | 0.00216 ± 0.00033 s⁻¹ | 4.26e-05 ± 1.2e-05 s⁻¹ | – |
| U49A U69A | 5.14e-05 ± 1.9e-05 s⁻¹ | – | – | – | – | – | – |
| A33G C67A | < 1e-05 s⁻¹ | – | – | – | < 1e-05 s⁻¹ | < 1e-05 s⁻¹ | – |
| A33G C67U | 2.01e-05 ± 2.6e-06 s⁻¹ | – | – | – | – | – | 1350 ± 420 µM |
| G13U U46A | 3.16e-05 ± 1.5e-06 s⁻¹ | – | – | 2.81e-05 ± 1.2e-05 s⁻¹ | 2.96e-05 ± 9.4e-06 s⁻¹ | – | 479 ± 200 µM |
| A15U G41A | 0.000124 ± 3.5e-05 s⁻¹ | – | 6.09e-05 ± 1.6e-05 s⁻¹ | 0.000147 ± 2.5e-05 s⁻¹ | 8.75e-05 ± 2.5e-05 s⁻¹ | – | – |
| U30C U65A | 2.91e-05 ± 1.2e-05 s⁻¹ | – | – | 3.76e-05 ± 1.2e-05 s⁻¹ | – | – | – |
| C58U G66C | < 1e-05 s⁻¹ | < 1e-05 s⁻¹ | < 1e-05 s⁻¹ | – | – | – | – |
| G41A U45C | 0.0002 ± 3.8e-05 s⁻¹ | 6.67e-05 ± 1.8e-05 s⁻¹ | 0.000158 ± 3.6e-05 s⁻¹ | 0.000154 ± 3.9e-05 s⁻¹ | 0.000372 ± 0.00017 s⁻¹ | – | 303 ± 140 µM |
| G29U G37A | 0.000503 ± 4.3e-05 s⁻¹ | – | 8.23e-05 ± 1.1e-05 s⁻¹ | 0.000188 ± 3.4e-05 s⁻¹ | 0.000383 ± 4.6e-05 s⁻¹ | – | 3470 ± 490 µM |
| G29U G32U | 0.00125 ± 0.00041 s⁻¹ | – | 0.00011 ± 1.5e-05 s⁻¹ | 0.000243 ± 3e-05 s⁻¹ | 0.000702 ± 7.1e-05 s⁻¹ | – | 8560 ± 4000 µM |
| A14C G32U | 0.0014 ± 6.9e-05 s⁻¹ | 6.08e-05 ± 2.1e-05 s⁻¹ | 0.000206 ± 3e-05 s⁻¹ | 0.000576 ± 7.9e-05 s⁻¹ | 0.00103 ± 0.00012 s⁻¹ | – | 3610 ± 300 µM |

Source: the supplement of paper PMC7125110
